Results taken from patent publication US20160096882A1.

Key:
Assay in all cases: cell-based or functional assay
[1] = biological target: H1N1 New Caledonia/20/99 hemagglutinin (Influenza A virus H1N1 New Caledonia/20/99)
[2] = biological target: H5N1 Vietnam/1203/04 hemagglutinin (Influenza A virus H5N1 Vietnam/1203/04)
[3] = biological target: H3N2 Wisconsin/67/05 hemagglutinin (Influenza A virus H3N2 Wisconsin/67/05)

B1: 1286-A11 antibody (antibody, V domains shown)
VH: QVQLQQSGPRLVKPSQTLSLTCAISGDSVSGDSGTWNWIRQSPSRGLEWLGRTYYRSKWYNDYAESVKSRIVIKADTSKNEFSLQLNSVTPEDTAIYYCARAGVKIFGLIVGALDNWGRGTLVTVSS
VL: EIVMTQSPGTLSLSPGERATLSCRASQSVSSSYLAWYQQKPGQAPRLLIYGASTRATGVPDRFHGGGSGTDFTLTISRLEPEDFAVYYCQQYDTSSGLTFGGGTKVEIK
Neutralization MIC [1]: 83 µg/mL | Neutralization MIC [2]: 333 µg/mL | Neutralization MIC [3]: > 333 µg/mL
